1 substance from US20200247885A1 can be followed below.

This assay deals with murine P2X purinoceptor 4 (Q9JJX6) (mouse) (UniProt Q9JJX6). The experiment in a line: cell-based or functional assay.
Sequence of UniProt Q9JJX6 (Q9JJX6 whole entry, form in doubt): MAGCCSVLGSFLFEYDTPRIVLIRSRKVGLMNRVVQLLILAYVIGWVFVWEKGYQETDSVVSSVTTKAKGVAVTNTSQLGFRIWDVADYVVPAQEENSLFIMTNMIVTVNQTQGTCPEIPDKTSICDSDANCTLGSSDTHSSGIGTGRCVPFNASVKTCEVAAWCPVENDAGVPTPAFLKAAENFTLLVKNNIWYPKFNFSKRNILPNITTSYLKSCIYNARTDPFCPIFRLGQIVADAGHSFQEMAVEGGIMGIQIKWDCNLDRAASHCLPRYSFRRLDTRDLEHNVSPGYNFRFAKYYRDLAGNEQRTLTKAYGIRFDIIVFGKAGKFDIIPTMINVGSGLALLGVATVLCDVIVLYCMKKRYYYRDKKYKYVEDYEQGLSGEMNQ

Turning to hIgG1 NIP 228 TM (antibody), the fraction of control current (fraction of control current) was determined as 1.08.
